Measurements as given in paper PMC3678299 (FEBS Open Bio, 2013).

Molecular target: the molecule itself
Test: cross-linking; chemical cross-linking in TrkA-transfected PC12 cells, with or without LPC; data not shown

B1: tropomyosin-related kinase A (TrkA) (receptor)
chain: not shown
In the case of B1, the “stoichiometry N” value is reported as 2.
